Experimental data as given in PMC9897555 (2023).

Biological target: Spike protein S1 C-terminal domain 319-674 (Severe acute respiratory syndrome …, UniProt P0DTC2)
Test: flow

B1: LRRC15 (protein)
chain: YHGCPSECTCSRASQVECTGARIVAVPTPLPWNAMSLQILNTHITELNESPFLNISALIALRIEKNELSRITPGAFRNLGSLRYLSLANNKLQVLPIGLFQGLDSLESLLLSSNQLLQIQPAHFSQCSNLKELQLHGNHLEYIPDGAFDHLVGLTKLNLGKNSLTHISPRVFQHLGNLQVLRLYENRLTDIPMGTFDGLVNLQELALQQNQIGLLSPGLFHNNHNLQRLYLSNNHISQLPPSVFMQLPQLNRLTLFGNSLKELSPGIFGPMPNLRELWLYDNHISSLPDNVFSNLRQLQVLILSRNQISFISPGAFNGLTELRELSLHTNALQDLDGNVFRMLANLQNISLQNNRLRQLPGNIFANVNGLMAIQLQNNQLENLPLGIFDHLGKLCELRLYDNPWRCDSDILPLRNWLLLNQPRLGTDTVPVCFSPANVRGQSLIIINVNVAVPSVHVPEVPSYPETPWYPDTPSYPDTTSVSSTTELTSPVEDYTDLTTIQVTDDRSVWGMTQAQSG
B1 gave a Kd of roughly 260 nM.
